Test results published in article PMC4772114, “Structural basis for the regulation of enzymatic activity of Regnase-1 by domain-domain interactions” (Scientific Reports, 2016).
Where a chain is given by its changes, count along the chain named.

What was measured:
[1] = molecular target: the molecule itself; experiment: not stated; Kd of PIN-PIN told in the discussion only; how it was estimated is not told
[2] = molecular target: the molecule itself; experiment: SEC; gel filtration of the PIN domain and its mutants; elution volume compared with standard marker proteins; concentration dependent, 20-200 uM range
[3] = molecular target: the molecule itself; experiment: crystal structure; PIN-ZF (134-339), sitting drop vapor diffusion at 20 C; form I (P3_121, selenomethionine-labeled) and form II (P3_221, native)
[4] = molecular target: T1, Regnase-1 ZF domain (Mus musculus, UniProt Q5D1E7 299-339); experiment: NMR titration (1H-15N HSQC, Y314); Zn2+-bound ZF; 100 uM ZF; apparent Kd; EMSA: 20 mM HEPES-NaOH pH 6.8, 150 mM NaCl, 1 mM DTT, 10% glycerol, 0.1% NP-40, 4 C, 30 min; NMR buffer not in material; settings: protein: recombinant; tags: GST removed (HRV-3C), 15N-labeled
T1 chain: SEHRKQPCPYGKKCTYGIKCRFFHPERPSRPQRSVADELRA

[5] = molecular target: T2, Regnase-1 PIN domain, catalytically inactive monomeric mutant (DDNN and D278R) (Mus musculus, UniProt Q5D1E7 134-295, D226N | D244N | D278R); experiment: NMR titration; 1H-15N HSQC of 15N-labeled NTD at 100 uM with unlabeled PIN (DDNN, D278R) added (3 or 6 molar equivalents); 298 K; apparent Kd from the titration curve of L58; settings: both partners purified
T2 construct: Regnase-1 (Zc3h12a), Mus musculus, PIN domain; the discussion gives PIN as residues 134-295; Limits as for m1; Uniformly 15N-labelled or unlabelled in the NMR experiments; not shown: GST, N-terminal, cleaved
T2 sequence (looked up): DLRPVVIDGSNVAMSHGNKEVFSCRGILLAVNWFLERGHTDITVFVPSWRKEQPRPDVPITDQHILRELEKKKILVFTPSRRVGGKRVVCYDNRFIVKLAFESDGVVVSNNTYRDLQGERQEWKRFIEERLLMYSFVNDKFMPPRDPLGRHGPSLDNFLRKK

B1: Regnase-1 PIN domain, wild type (domain or fragment, Mus musculus, UniProt Q5D1E7 134-295, looked up)
chain: T2 sequence (looked up) with N93D, N111D, R145D
notes: Regnase-1 (Zc3h12a, MCPIP1), Mus musculus, PIN domain; the discussion gives PIN as residues 134-295; The limits 134-295 are told for the PIN domain in the discussion, not expressly for the construct; 15N-labelled for NMR; also called PilT N-terminus like domain; not shown: GST, N-terminal, cleaved
**Q.** With B1 as the binder, how does the Kd [1] read?
**A.** Its Kd is about 100 µM.

B2: Regnase-1 PIN domain R215E (domain or fragment, Mus musculus, UniProt Q5D1E7 134-295, looked up)
chain: T2 sequence (looked up) with R82E, N93D, N111D, R145D
notes: Regnase-1 (Zc3h12a), Mus musculus, PIN domain; the discussion gives PIN as residues 134-295; Limits as for m1; not shown: GST, N-terminal, cleaved
**Q.** Does B2 bind [2]?
**A.** Result: binds

B3: Regnase-1 PIN-ZF (residues 134-339) (domain or fragment, Mus musculus, UniProt Q5D1E7 134-339, looked up)
chain: DLRPVVIDGSNVAMSHGNKEVFSCRGILLAVNWFLERGHTDITVFVPSWRKEQPRPDVPITDQHILRELEKKKILVFTPSRRVGGKRVVCYDDRFIVKLAFESDGVVVSNDTYRDLQGERQEWKRFIEERLLMYSFVNDKFMPPDDPLGRHGPSLDNFLRKKPLPSEHRKQPCPYGKKCTYGIKCRFFHPERPSRPQRSVADELRA
modifications: selenomethionine-labeled (form I crystals); native (form II crystals)
notes: Regnase-1 (Zc3h12a), Mus musculus, PIN and ZF domains, residues 134-339; Electron density was observed only for the PIN domain; also called fragment containing both the PIN and ZF domains; not shown: GST, N-terminal, cleaved
**Q.** Does B3 bind [3]?
**A.** Result: binds

**Q.** How did the Kd [4] turn out when UGUUGUUCUCUACGAAGAACUGACA (ssRNA) [IL-6 mRNA 3'UTR (82-106)] was run?
**A.** The Kd was 10 ± 1.1 µM.

B4: Regnase-1 N-terminal domain (NTD) (domain or fragment, Mus musculus)
chain: TSELQMKVDFFRKLGYSSSEIHSVLQKLGVQADTNTVLGELVKHG
notes: Regnase-1 (Zc3h12a), Mus musculus, N-terminal domain; residues 90-133 are called the connection between the NTD and PIN; Uniformly 15N-labelled or unlabelled in the NMR experiments; not shown: GST, N-terminal, cleaved
**Q.** For B4, which Kd [5] is on record?
**A.** The Kd was 110 ± 5.8 µM.
